Test results: US20070054259, “Modulation of hnRNP H and treatment of DM1” (City of Hope, published 2007)
Numbering of substitutions follows the chain as printed.

Key:
Settings in all cases: tags: bacterially expressed, purified as Markovtsov et al. 2000
[1] = biological target: T1, hnRNP H (recombinant) (UniProt P31943 P31943:1-449); assay: EMSA; much more shifted than CUG46; 50 kDa UV crosslink but no 100 kDa dimer without extract
T1 sequence: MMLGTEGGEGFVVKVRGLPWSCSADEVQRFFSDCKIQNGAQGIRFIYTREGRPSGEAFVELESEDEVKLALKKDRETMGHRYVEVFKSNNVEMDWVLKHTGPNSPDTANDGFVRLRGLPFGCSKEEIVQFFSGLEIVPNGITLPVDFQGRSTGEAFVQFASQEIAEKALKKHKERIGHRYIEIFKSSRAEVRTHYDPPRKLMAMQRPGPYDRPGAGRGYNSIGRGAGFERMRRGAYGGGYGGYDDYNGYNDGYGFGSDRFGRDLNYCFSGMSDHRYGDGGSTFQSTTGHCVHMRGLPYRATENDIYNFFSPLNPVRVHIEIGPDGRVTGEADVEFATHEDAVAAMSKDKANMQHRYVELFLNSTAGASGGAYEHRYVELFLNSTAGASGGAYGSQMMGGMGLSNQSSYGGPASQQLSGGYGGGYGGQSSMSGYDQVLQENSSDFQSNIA
Description: (§1) Based on previous data FIGS. 1B, 1C, 2A and 2B) we speculated that the binding of hnRNP H to CUG repeats is proportional to the length of the repeats. The recombinant form of hnRNP H was indubated with different length CUG repeats and complexes resolved in a native gel (FIG. 4A). No binding to the CUG 5 RNA was observed (Lanes 1 and 3). When the CUG 46 RNA was used in this assay, only a small fraction of the protein was gel shifted (marked as * in lane 6). In contrast, the CUG85 RNA was much more gel shifted (marked as * in lane 9). […] Combined all hnRNP H binds to CUG repeats in a proportional way depends on the length of the (CUG) repeats.

[2] = biological target: T1, hnRNP H (recombinant); assay: EMSA; 10 ng protein; binding abolished by branch site mutation
Description: as §1
The different RNAs used in these assays have CUG repeats as well as a splicing acceptor site derived from a downstream of the DMPK gene (Gourdon, 1997). To understand the role of this 3′ branch site in the binding reaction, a mutant CUG85 clone containing a mutant form of the branch site was created (marked as CUG85′, FIG. 1A).

[3] = biological target: T1, hnRNP H (recombinant); assay: EMSA; native gel, lane 3
Description: as §1

B1: (CUG)85 DMPK RNA (ssRNA)
RNA: CUGCUGCUGCUGCUGCUGCUGCUGCUGCUGCUGCUGCUGCUGCUGCUGCUGCUGCUGCUGCUGCUGCUGCUGCUGCUGCUGCUGCUGCUGCUGCUGCUGCUGCUGCUGCUGCUGCUGCUGCUGCUGCUGCUGCUGCUGCUGCUGCUGCUGCUGCUGCUGCUGCUGCUGCUGCUGCUGCUGCUGCUGCUGCUGCUGCUGCUGCUGCUGCUGCUGCUGCUGCUGCUGCUGCUGCUGCUGCUGCUGCUGCUGCUGCUGGGGGGAUCACAGACCA
- binding result [1]: binds

B2: (CUG)85' DMPK RNA, mutated 3' branch site (ssRNA)
RNA: B1 RNA with C265G, A266U
- binding result [2]: no binding

Binder: CUGCUGCUGCUGCUGGGGGGAUCACAGACCA (ssRNA) [(CUG)5 DMPK RNA]
- binding result [3]: no binding
